This note sets out measurements from patent publication US20130323249A1 (published 2013).

Assay [1] has as its target T1, human PD-L1 expressed on the surface of cells (human, UniProt Q9NZQ7 19-290).
T1 construct: whole, on cells; also called CHO-PD-L1; PD-L1 on ES-2 ovarian carcinoma cells
As to the kind of experiment: flow cytometry (Intellicyt HTFC) on CHO-PD-L1 cells, PE anti-human IgG detection. Here is the method:
(§1) After 0.5 hr incubation, cells were washed 1× with FACS Buffer and resuspended in 50 μl PE-conjugated, goat anti-human IgG (γ-chain specific) secondary antibody (Southern Biotech Cat #2040-09). Cells were further incubated for 0.5 hr and then washed 1× with FACS Buffer. Cells were resuspended in 25 μl FACS Buffer and the median fluorescence intensity in the FL2-H channel was determined using the Intellicyt HTFC flow cytometer.
In general terms: A flow cytometer gives signals particle by particle.

Assay [2] has as its target T2, rhPD-L1 (human, UniProt Q9NZQ7 19-238, limits assumed).
T2 construct: also called recombinant human PD-L1
As to the kind of experiment: Biacore SPR, rhPD-L1 immobilized on CM5 chip, antibody in solution, 1:1 Langmuir fit. Here is the method: All measurements were conducted in HBS-EP buffer with a flow rate of 30 μL/min. Antibody was diluted so as to obtain a series of concentrations. A 1:1 (Langmuir) binding model was used to fit the data.

Assay [3] deals with T3, PD-L1/Fc (human, UniProt Q9NZQ7 19-238, limits assumed).
T3 construct: also called rhPD-L1; not shown: Fc part (detected with anti-human Fc)
As to the kind of experiment: competition ELISA: G12 IgG pre-mixed with PD-L1/Fc, binding to coated PD1/His detected with anti-human Fc HRP. Here is the method: A 96-well ELISA plate was coated with 1 ng/μL PD1/His at 4° C. overnight, then blocked with casein in PBS. […] Transferred 25 μl the mixtures to the ELISA plate and incubated 30 min with shaking. Washed 3 times with PBST. Added HRP conjugated Goat anti-human Fc (1:500 in casein), used TMB as substrate and developed 30 min. 2M H₂SO₄ was added to stop the reaction. Read the OD at 450 nm.
(In general: An ELISA detects its analyte on a solid surface through an enzyme-linked reagent.)

In assay [4] the target is T1, human PD-L1 expressed on the surface of …. As to the kind of experiment: flow cytometry (Intellicyt HTFC) on ES-2 ovarian carcinoma cells treated with IFNγ for 18 hr, PE anti-human IgG detection. Here is the method: as §1
Assay [5] has the same target. Briefly: flow cytometry competition: CHO-PD-L1 cells pre-incubated with G12, then rhPD-1-Fc, detected with Alexa-Fluor 647 anti-PD-1 antibody. The text has this: Data points are shown as the median fluorescence detected in the FL-4H channel +/− Std Error.

T1 sequence (Q9NZQ7 19-290): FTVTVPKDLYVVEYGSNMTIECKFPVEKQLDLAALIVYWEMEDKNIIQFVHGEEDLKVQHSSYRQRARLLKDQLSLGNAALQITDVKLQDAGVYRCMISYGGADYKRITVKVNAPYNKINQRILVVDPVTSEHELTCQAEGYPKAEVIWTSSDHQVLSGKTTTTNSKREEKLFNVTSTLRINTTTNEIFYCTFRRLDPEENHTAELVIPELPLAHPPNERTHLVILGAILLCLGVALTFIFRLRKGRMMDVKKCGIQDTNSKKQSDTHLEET
T2 sequence (Q9NZQ7 19-238 limits assumed): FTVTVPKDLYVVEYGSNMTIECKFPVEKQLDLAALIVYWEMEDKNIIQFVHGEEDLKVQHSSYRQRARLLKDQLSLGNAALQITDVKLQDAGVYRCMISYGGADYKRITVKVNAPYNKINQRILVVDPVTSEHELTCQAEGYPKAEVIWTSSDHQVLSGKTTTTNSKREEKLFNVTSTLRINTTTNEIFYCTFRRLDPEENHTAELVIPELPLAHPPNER
T3 sequence (Q9NZQ7 19-238 limits assumed): as above

B1: G12 anti-PD-L1 antibody (antibody, V domains shown)
VH: EVQLVQSGAEVKKPGASVKVSCKASGYTFTGYYMHWVRQAPGQGLEWMGWINPNSDNTGSAQKFQGRVFMTKTTSLNTAYMELSGLRSEDTAIYYCARERSSGYFDFWGQGTLVTVSS
VL: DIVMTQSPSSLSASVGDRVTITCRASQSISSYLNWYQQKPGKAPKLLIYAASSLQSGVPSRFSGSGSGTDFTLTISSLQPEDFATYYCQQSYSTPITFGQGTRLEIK
notes: Fully human antibody of an IgG class; detected with anti-human IgG gamma-chain specific secondary; also called anti-PD-L1 mAb G12
In general, EC50 refers to the concentration at which the effect is half-maximal. Usually Kd stands for the constant that tells how readily two partners part at equilibrium. High values mean weaker binding, low ones tighter binding. In general, koff refers to the first-order rate constant of dissociation. A high value points to fast dissociation. As a reminder, the kon is the second-order rate constant of association. Read a low kon as slower complex formation. As usually defined, the IC50 is the concentration needed to halve the response being measured. Consider B1, for which, in assay [1], the EC50 was determined as 1710 pM. In assay [2], this molecule registered an equilibrium dissociation constant (Kd) of 37.4 pM, a koff of 0.00049 s⁻¹ and a kon of 1.31e+07 M⁻¹ s⁻¹. Moreover, the IC50 in assay [3] was determined as 72.9 pM. It took 45.8 pM to reach a half-maximal effect in assay [4] (EC50). Also, the half-maximal inhibitory concentration (IC50) in assay [5] worked out at 1760 pM.
